From US20240041988A1, “Use of elapidae postsynaptic neurotoxin in the treatment of over expression of inflammatory cytokines related diseases” (priority 2020, published 2024) come the findings set out here.

Test [1] concerns interleukin 1 beta (IL-1 beta). Kind of test: Carrageenan pleural inflammation rat model, serum IL-1 beta by ELISA. The class given is in vivo, Wistar rats. The conditions noted are these: rat tail vein blood 6 hours after carrageenan, n = 10, inflammation group 52.40 ± 6.74, saline control 35.20 ± 4.78. The protocol: (§1) 140 Wistar rats (200-240 g) are randomly divided into 14 groups, and each group is 10. The preparation method comprises the following steps: (group 1) only receiving sterile normal saline ([…]) (control group); (group 2) carrageenan inflammation modeling+oral normal saline 10 ml/kg (inflammation group); (Group 3) Carrageenan Inflammation modeling+oral Naja atra postsynaptic neurotoxin (SEQ ID NO 1) 200 μg/kg prepared into a liquid state and continuous intragastric administration performed; (Group 4) Carrageenan Inflammation modeling+oral Naja atra postsynaptic neurotoxin (SEQ ID NO 1) 800 μg/kg prepared into a liquid state and continuous intragastric administration performed. (Group 5-14) The postsynaptic neurotoxin of Bungarus multicinctus, Ophiophagus Hannah, Naja kaouthia, Dendroaspis polylepis, Bungarus fasclatus, through the same administration model, that means carrageenan inflammation modeling+oral administration of 200 μg/kg and 800 μg/kg two doses respectively and continuously intragastric administration, so that the rat is divided into 14 groups.
(§2) Except for the […], 0.1 ml of sterile normal saline+carrageenan (CG, 1%) is injected into the rest 13 groups through pleural cavities for inflammation modeling. The preparation method comprises the following steps: 1 hour before molding, orally administration of normal saline or different types of postsynaptic neurotoxin with different doses respectively in each group, 6 hours after the carrageenan injection, collecting rat tail vein blood to detect the concentration of IL-1 beta and TNF-alpha.
(§3) The serum of the collected rat tail vein blood is separated and collected by using a commercial ELISA assay kit, and biochemical evaluation is carried out on the concentration of the tumor necrosis factor alpha (TN F-alpha) and interleukin 1 beta (IL-1 beta) according to the instructions of experimental step of the kit's manufacturer.
(ELISA stands for enzyme-linked immunosorbent assay.)

Test [2] relates to tumor necrosis factor alpha (TNF-alpha). Kind of test: Carrageenan pleural inflammation rat model, serum TNF-alpha by ELISA. In kind it is in vivo, Wistar rats. The following applies: rat tail vein blood 6 hours after carrageenan, n = 10, inflammation group 61.30 ± 7.86, saline control 42.70 ± 5.93. On the procedure: as §1, §2, §3
[3] abbreviates: 200 μg/kg oral (intragastric) 1 hour before carrageenan.
[4] abbreviates: 800 μg/kg oral (intragastric) 1 hour before carrageenan.

B1: SEQ ID No1 (protein, listed as Naja atra)
chain: LECHNQQSSQTPTTTGCSGGETNCYKKRWRDHRGYRTERGCGCPSVKNGIEINCCTTDRCNN
For B1, the “IL-1β blood average concentration (x ± s)” value turned out to be 45.40 ± 4.95 ng/L in test [1] (setting [3]) and 41.30 ± 4.31 ng/L in test [1] (setting [4]). Also, the “TNF-a blood average concentration (x ± s)” value is reported as 53.70 ± 6.32 ng/L in test [2] (setting [3]) and 50.60 ± 5.89 ng/L in test [2] (setting [4]).

B2: SEQ ID No20 (protein, listed as Bungarus fasclatus)
chain: RICLNQQQSTPEDQPTNGQCYIKTDCQNKTWNTHRGSRTDRGCGCPKVKPGINLRCCKTDKCNE
As for B2, the entries for the “IL-1β blood average concentration (x ± s)” value in test [1] (setting [3]) and in test [1] (setting [4]) were 44.10 ± 4.32 *^ ng/L and 40.80 ± 3.78 ng/L, respectively. Moreover, the “TNF-a blood average concentration (x ± s)” value came to 52.82 ± 6.55 ng/L in test [2] (setting [3]) and 47.81 ± 5.72 ng/L in test [2] (setting [4]).

B3: SEQ ID No9 (protein)
chain: TKCYKTGDRIISEACPPGQDLCYMKTWCDVFCGTRGRVIELGCTATCPTVKPHEQITCCSTDNCNPHPKMKQ
modifications: Ophiophagus hannah
In the case of B3, the “IL-1β blood average concentration (x ± s)” value was 44.50 ± 4.97 ng/L in test [1] (setting [3]) and 41.70 ± 4.23 ng/L in test [1] (setting [4]). In addition, the “TNF-a blood average concentration (x ± s)” value in test [2] (setting [3]) was found to be 54.80 ± 5.01 ng/L; in test [2] (setting [4]) it was 51.20 ± 5.76 ng/L.
